# From US20180339042A1
# pEC50: −log10 of the molar value.
# What was measured:
# [1] = target: human GITR, membrane bound (human) (UniProt Q9Y5U5); test: cell-based or functional assay
# [2] = target: activated T cells (UniProt Q9Y5U5); test: FACS binding, activated T cells; isotype control
# Sequence of activated T cells (Q9Y5U5 26-241): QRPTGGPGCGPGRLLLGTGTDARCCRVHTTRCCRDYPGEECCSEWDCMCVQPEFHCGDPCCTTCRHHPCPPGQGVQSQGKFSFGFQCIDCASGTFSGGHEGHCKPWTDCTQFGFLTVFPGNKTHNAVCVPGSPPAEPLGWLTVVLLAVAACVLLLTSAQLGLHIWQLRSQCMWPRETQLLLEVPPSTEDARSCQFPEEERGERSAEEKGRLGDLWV
# Sequence of human GITR, membrane bound (human) (Q9Y5U5 26-241): as above
Substance,"NFKB signaling (phospho-p65), CD4+ T cells, Emax (%) [1]","NFKB signaling (phospho-p65), CD8+ T cells, Emax (%) [1]",pEC50 [2]
hIgG1 Isotype Control (antibody),4%,6%,
unrelated hIgG1,,,6.88
unrelated hIgG2,,,8.17
